Values belong to the binder of their own block, whether it stands above or below them.
What was measured:
[1] = molecular target: FGF8b; experiment: SPR
[2] = molecular target: FGF1 (UniProt P05230 1-155); experiment: SPR
FGF1, sequence (P05230 whole entry): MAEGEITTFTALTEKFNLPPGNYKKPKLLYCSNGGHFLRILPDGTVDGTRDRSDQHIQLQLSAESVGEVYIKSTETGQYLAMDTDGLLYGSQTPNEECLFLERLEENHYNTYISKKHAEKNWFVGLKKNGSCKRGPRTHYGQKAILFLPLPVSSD

- Kd [1]: 390 nM
- Kd [2]: 265 nM
B1: D1-D2-D3^ΔAB (FGFR1c) (domain or fragment)
chain: RPSPTLPEQAQPWGAPVEVESFLVHPGDLLQLRCRLRDDVQSINWLRDGVQLAESNRTRITGEEVEVQDSVPADSGLYACVTSSPSGSDTTYFSVNVSDALPSSKETDNTKPNRMPVAPYWTSPEKMEKKLHAVPAAKTVKFKCPSSGTPNPTLRWLKNGKEFKPDHRIGGYKVRYATWSIIMDSVVPSDKGNYTCIVENEYGSINHTYQLDVVERSPHRPILQAGLPANKTVALGSNVEFMCKVYSDPQPHIQWLKHIEVNGSKIGPDNLPYVQILKTAGVNTTDKEMEVLHLRNVSFEDAGEYTCLAGNSIGLSHHSAWLTVLEALEERPAVMTSPLYLE

- Kd [1]: 329 nM
- Kd [2]: 268 nM
B2: D1-AB13ALA-D2-D3 (FGFR1c) (domain or fragment)
chain: RPSPTLPEQAQPWGAPVEVESFLVHPGDLLQLRCRLRDDVQSINWLRDGVQLAESNRTRITGEEVEVQDSVPADSGLYACVTSSPSGSDTTYFSVNVSDALPSSAAAAAAAAAAAAAKETDNTKPNRMPVAPYWTSPEKMEKKLHAVPAAKTVKFKCPSSGTPNPTLRWLKNGKEFKPDHRIGGYKVRYATWSIIMDSVVPSDKGNYTCIVENEYGSINHTYQLDVVERSPHRPILQAGLPANKTVALGSNVEFMCKVYSDPQPHIQWLKHIEVNGSKIGPDNLPYVQILKTAGVNTTDKEMEVLHLRNVSFEDAGEYTCLAGNSIGLSHHSAWLTVLEALEERPAVMTSPLYLE
